# Test results: patent US20160053277A1, “Compositions Having Dicamba Decarboxylase Activity and Methods of Use” (PIONEER HI-BRED INTERNATIONAL, INC., priority 2013, published 2016)
# B1: 9 (protein, listed as Octadecabacter antarcticus)
# chain: MATPKITFEEHFMAPGFEKHSEAFLKLIPRDQAEILTRRLGDFDGERIETMDRGGITRSIISLTGPGTQGEAVEKAVSAAQGANDFLAEKISKKPDRLGGLATLPMHDPDAAARELNRAVNDLGLQGCLVNTHTHGAYYEGTDYDPFWAEVEKLGVPFYLHPSNAYVTPHVLGGMPVLQGATWGWGVETGSHALRILFGGVFDRFPDVKLVLGHMGEALPFLRWRYDSRFGAYPMGVSLDRAPSAYFGSNILITTSGVCSHPSLIGAIGEMGADAVMFSVDYPYEDTDLAVEFIETAPLEDATRVKICHDNAARLFGMPTLAAKEGA
# B2: 11 (protein)
# chain: MALGKIALEEAFALPRFEEKTRWWASLFSVDPETHVKEITDINKLRIEHADKYGVGYQILSYTAPGVQDIWDPVEAQALAVEINDYIAEQIRDKPDRFGAFATLSMHNPQEAASELRRCVQTYGFKGALVNDTQRAGPDGDDMIFYDNASWDIFWQTCTELDVPLYLHPRNPTGTIYEKLWADRKWLVGPPLSFAQGVSLHVLGMVTNGVFDRHPNLQLIMGHLGEHVPFDMWRINHWFEDRKKLLGLAETCKKTIREYFAQNIWITTSGHFSTTTLNFCMAEVGVDRILFSIDYPFETFEDACVWFDGAELNLSDKAKIGRDNAARLFKLGAFRDYDAKVKA
# modifications: Aspergillus niger
# B3: 106 (protein, listed as Pyrococcus horikoshii)
# chain: MAGMKFIKNLHVSKLVIDSMKALINGTIYTSFNPLKKVSGLVISHGKVIYAGDSEVAKKIVELSGGEIVDLKGKYVMPAFFDSHLHLDELGMSLEMVDLRGAKSIEELIQRLKRGKGRIIFGFGWDQDELGEWPTRKELNAIDKPVFIYRKCFHVAVANDKMLELLNLTPSKDFDEDTGIIKEKSLEEARKVINERVLTVEDYVYYIKRAQEHLLDLGVKSVSFMSVNEKALRALFYLEREGKLSINVFAYVTPEVLDKLESIGLGRFQGNRLTIAGVKLFTDGSLGARTALLSKPYSDDPSTSGQLVMEREELIRITEKARSLGLDVAIHAIGDKALDVALDVFETTGFPGRIEHASLVRDDQLERVKNLKVRLSVQPHFIISDWWIVERVGEERVKWVYRFKDLMKVAELGFSTDSPIEPADPWLTVDAAVNRGKGKVKLYELTKDQALDIKDALHSYTYGSARVSLASDIGKLEPGFKAEYIILDRDPLVVK
# B4: 104 (protein)
# chain: MANILQEPIDFLKKEELKNIDLSQMSKKERYKIWKRIPKCELHCHLDLCFSADFFVSCIRKYNLQPNLSDEEVLDYYLFAKGGKSLGEFVEKAIKVADIFHDYEVIEDLAKHAVFNKYKEGVVLMEFRYSPTFVAFKYNLDIELIHQAIVKGIKEVVELLDHKIHVALMCIGDTGHEAANIKASADFCLKHKADFVGFDHGGHEVDLKEYKEIFDYVRESGVPLSVHAGEDVTLPNLNTLYSAIQVLKVERIGHGIRVAESQELIDMVKEKNILLEVCPISNVLLKNAKSMDTHPIRQLYDAGVKVSVNSDDPGMFLTNINDDYEELYTHLNFTLEDFMKMNEWALEKSFMDSNIKDKIKNLYF
# modifications: Plasmodium Vivax
# B5: 12 (protein, listed as Zymoseptoria tritici)
# chain: MALGKVAFEEAFALPRFKERTTWWAGLFAVDPEKHTREINDINKLRIEKMDQFGVGYTLLSYTAPGVQDVWQQEEADALAREVNDHVAAEIKGHEDRLGALATLSMHDPQTASAELRRCIKDYGFKGALVNDTQRNDESGTGMIFYDGPEWDVFWSTVQELDVPFYLHPRNPTGVFMEKLWAPRKWLVGPPLSFAQGVSLHLLGMVTNGTFDRFPNLQVIIGHLGEHLPFDLWRINHWFEDIKKPLGLDCKKTIREYFNENIWITTSGHFSTPTLEYCIKEIGAERILFSIDYPFEKFEDACDWYDGVELDGPDTVKKIGRENAKKLFKLGAFKDDSA
# B6: 8 (protein, listed as Metarhizium anisopliae)
# chain: MARGKINFEEAFELPTLADSSREQAALYIAPKDLDRYIYHIKHPLGERLQLANSHGIGYTIYSLTVPGIQGIPDQSKAEQHATTVNDWIANEIKDHRDRLGAFAALSMHDAAQAAAELERCVRQHGFHGALLNNYQHAGPDGETYLFYDQPAYDVFWQKCVELDVPVYLHPAAPAGNYYKQMYAQRKYLVGPPLSFANDVSLHLLGLVTNGVFDRFPKLKVVVGHLGEHIPFDFWRISHWLEDVERPLAAGRGDVMSKKDLLYYFKNNIWVTTSGHFSTPTVRYVADYLGPERIMFSVDTPYETIENGVGWFDGEEDALTRALGGEDGYKKVARENAKKLFKLTKYHDCDA
# B7: 105 (protein)
# chain: MAIDFHVHLDLYPDPVAVARACEERQLTVLSVTTTPAAWRGTLALAAGRPHVWTALGFHPEVVSERAADLPWFDRYLPETRFVGEVGLDGSPSLRGTWTQQFAVFQHILRRCEDHGGRILSIHSRRAESEVLNCLEANPRSGTPILHWYSGSVTELRRAISLGCWFSVGPTMVRTQKGAALIRSMPRDRVLTETDGPFLELDGQAALPWDVKSVVEGLSKIWQIPASEVERIVKENVSRLLGTVR
# modifications: Deinococcus radiodurans
# B8: 101 (protein, listed as Aquifex aeolicus)
# chain: MAQKIALCITGASGVIYGIKLLQVLEELDFSVDLVISRNAKVVLKEEHSLTFEEVLKGLKNVRIHEENDFTSPLASGSRLVHYRGVYVVPCSTNTLSCIANGINKNLIHRVGEVALKERVPLVLLVREAPYNEIHLENMLKITRMGGVVVPASPAFYHKPQSIDDMINFVVGKLLDVLRIEHNLYKRWRG
# B9: 107 (protein, listed as Rhodopseudomonas palustris)
# chain: MAIIDIHGHYTTAPKALEDWRNRQIAGIKDPSVMPKVSELKISDDELQASIIENQLKKMQERGSDLTVFSPRASFMAHHIGDFNVSSTWAAICNELCYRVSQLFPDNFIGAAMLPQSPGVDPKTCIPELEKCVKEYGFVAINLNPDPSGGHWTSPPLTDRIWYPIYEKMVELEIPAMIHVSTSCNTCFHTTGAHYLNADTTAFMQCVAGDLFKDFPELKFVIPHGGGAVPYHWGRFRGLAQEMKKPLLEDHVLNNIFFDTCVYHQPGIDLLNTVIPVDNVLFASEMIGAVRGIDPRTGFYYDDTKRYIEASTILTPEEKQQIYEGNARRVYPRLDAALKAKGK
# B10: 14 (protein, listed as Talaromyces marneffei)
# chain: MARGKVSFEEAYEIPALADKSREQAALYIAPKDLDRYLSEIKSPTGGRLDISNKNGIGYTIYSLTVPGVQGIADKAKAEKHATDVNNWIYNEIKDHRDRMGAFAALSMHDPVQAGQELERCVKKLGFHGALLNNWQHAGTDGETYIFYDHPSYDVFWQKCVELDVPVYLHPSAPSGKVFDTFFKDRRYLIGPPISFAQDVALHTMGLITNGVFDRNPKLKLILGHLGERIPQDLWRTNHWLEDVERPLADSRGDTMSRKPLLYYFKNNIYVTTSGHFSTETVKFVCDYFGADRILFSVDSPYEKIEEGAGWYDKDKDNLTKALGGPQQYLDVGRENAKKLFKLGKYHDCDA
# B11: 10 (protein, listed as Starkeya novella)
# chain: MARKIALEEHFTTPELAGKYVARPTQSDALFADIERRLADFDELRLEMMDRAEIDLMVLSVTTPGVQGVRDTGEAIRLARGANDFLAREVQKRPSRYAGFAHLAMQDAEAAATELERAVRELGFRGALINGQTNGHYLDEDQYAPFWERVQELDVPVYLHPGNMADSPAMFAHRPELGGPIWAWTAETAAHALRLVFGGTFTRFPGAKVILGHMGETLPFLLWRLDSRREFDLGEKLAPDALPSAIIKRNIAVTTSGVCDPAPLVAALQALSDDNVMFSVDYPYEDPQLASKFIETAPIGEETRAKVCHGNAERLLGL
# B12: 102 (protein, listed as Lactobacillus plantarum)
# chain: MATKTFKTLDDFLGTHFIYTYDNGWEYEWYAKNDHTVDYRIHGGMVAGRWVTDQKADIVMLTEGIYKISWTEPTGTDVALDFMPNEKKLHGTIFFPKWVEEHPEITVTYQNEHIDLMEQSREKYATYPKLVVPEFANITYMGDAGQNNEDVISEAPYKEMPNDIRNGKYFDQNYHRLNK
# B13: 13 (protein, listed as Metarhizium acridum)
# chain: MAHGKVALEEAFALPRLHEKTRWWASLFAVNPDKHAAEMTDITDIRINYMDKHGVGYTILSYTAPGVQDISDPKEAQALAVEINDYVAGAIKNHPDRFGAFATLSMRNPQEAATELKRCVTQYGFKGALVNDTQRAGEDDMIFYDGPEWDVFWSTVEELDVPFYLHPRNPTGSLYEKLWAKRKWLVGPPLSFAQGVSLHVLGMVTNGVFDRHPKLQVVLGHLGEHIPFDMWRINHWFEDVKKPLGLDCKKTIREYFQQNIWITTSGHFSTTTLQFCMAEVGADRILFSIDYPFECFADACDWYDGVPINLVDKAKIGRDNARRLFKLPEFKDSEKHVDA
# B14: 103 (protein)
# chain: MAMEIPTEEIKFLKKEDVQNIDLNGMSKKERYEIWRRIPKVELHCHLDLTFSAEFFLKWARKYNLQPNMSDDEILDHYLFTKEGKSLAEFIRKAISVSDLYRDYDFIEDLAKWAVIEKYKEGVVLMEFRYSPTFVSSSYGLDVELIHKAFIKGIKNATELLNNKIHVALICISDTGHAAASIKHSGDFAIKHKHDFVGFDHGGREIDLKDHKDVYHSVRDHGLHLTVHAGEDATLPNLNTLYTAINILNVERIGHGIRVSESDELIELVKKKDILLEVCPISNLLLNNVKSMDTHPIRKLYDAGVKVSVNSDDPGMFLSNINDNYEKLYIHLNFTLEEFMIMNNWAFEKSFVSDDVKSELKALYF
# modifications: Plasmodium yoelii yoelii
# Assay: 14C assay with IPTG-induced recombinant E. coli cells: 14CO2 captured from [14C]-carboxyl-labeled dicamba
# Settings: dicamba decarboxylation activity of the protein of the given SEQ ID NO; High / Low / No
row,Molecule,Enzymatic Detection level
1,B1,No
2,B2,Low
3,B3,No
4,B4,No
5,B5,No
6,B6,Low
7,B7,No
8,B8,No
9,B9,No
10,B10,Low
11,B11,Low
12,B12,No
13,B13,No
14,B14,No

# Same assay, conditions: induced recombinant E. coli cells, [14C]-carboxyl-labeled dicamba, 14CO2 capture
row,Molecule,Dicamba Decarboxylase Activity
1,B1,No
2,B2,Low
3,B3,No
4,B4,No
5,B5,No
6,B6,Low
7,B7,No
8,B8,No
9,B9,No
10,B10,Low
11,B11,Low
12,B12,No
13,B13,No
14,B14,No

# Assay: Saturation mutagenesis of SEQ ID NO:109: dicamba decarboxylation activity of point mutants (carbon dioxide released)
# Settings: decarboxylation activity (carbon dioxide released) of point mutant compared with unmutated backbone protein; backbone SEQ ID NO: 109
row,Molecule,Fold Activity
1,B1,1.2
2,B2,1
3,B3,0.8
4,B4,2.1
5,B5,0.9
6,B6,1.3
7,B7,0.9
8,B8,1.8
9,B9,1.7
10,B10,1
11,B11,1.2
12,B12,2.6
13,B13,1
14,B14,1.7
